Measurements reported in the RNAGym collection of RNA variant scans (doi:10.1073/pnas.2313332121).
This sample holds only a part of the variants without activity.

B1: TPR 5TU (parent)
chain: GGAUCUUCUCGAUCUAACAAAAAAGACAAAUCUGCCACAAAGCUUGAGAGCAUCUUCGGAUGCAGAGGCGGCAGCCUUCGGUGGCGCGAUAGCGCCAACGUUCUCAACUAUGACACGCAAAACGCGUGCUCCGUUGAAUGGAGUUUAUCAUG

Variants of: B1
Test: polymerase ribozyme fitness, log enrichment relative to wild type (log ratio); higher = more active; in vitro selection for triplet polymerase activity
Method in brief: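 Streptavidin-bead capture of gel-excised extended constructs, followed by RT-PCR, closed a single triplicate in vitro selection round. That round began by annealing PCR-built, transcribed mutant libraries of each subunit of a heterodimeric triplet polymerase ribozyme with a biotinylated primer, the partner subunit and triplets, then incubating them frozen at −7 °C. After Illumina sequencing of inputs and outputs, genotypes needed ≥10 input reads and ≥1 read per output. Fitness is the base-2 logarithm of genotype enrichment over wild-type enrichment, using inverse-variance-weighted replicate averages.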

First: GGAUCUUCUCGAUCUAACAAAAAAGACAAAUCUGCCACAAACCUUGAGAGCAUCUUCGGAUGCAGAGGCGGCAGCCUUCGGUGGUGCGAUAGCGCCAACGUUCUCAACUAUGACACGCAAAACGCGUGCUCCGUUGAAUGGAGUUUAUCAUG
Second: GGAUCUUCUCGAUCUAACAAAAAAGACAAAUCUGCCACAAAACUUGAGAGCAUCUUCGGAUGCAGAGGCGGCAGCCUUCGGUGGCACGAUAGCGCCAACGUUCUCAACUAUGACACGAAAAACGCGUGCUCCGUUGAAUGGAGUUUAUCAUG
The “polymerase ribozyme fitness (log ratio)” value of the first is higher: -3.97 for the first, ≤ -4.2 for the second.

GGAUCUUCUCGAUCUAACAAAAAAGACAAAUCUGCCACAAACCUUGAGAGCAUCUUCGGAUGCAGAGGCGGCAGCCUUGGGUGGCGCGAUAGCGCCAACGUUCUCAACUAUGACACGCAAAACCCGUGCUCCGUUGAAUGGAGUUUAUCAUG and GGAUCUUCUCGAUCUAACAAAAAAGACAAAUCUGCCACAAAACUUGAGAGCAUCUUCGGAUGCAGAGGCGGCAGCCUUCGGUGGCGCAAUAGGGCCAACGUUCUCAACUAUGACACGCAAAACGCGUGCUCCGUUGAAUGGAGUGUAUAAUG cannot be ordered by “polymerase ribozyme fitness (log ratio)” value: ≤ -4.2 for the first, ≤ -4.2 for the second.

First: GGAUCUUCUCGAUCUAACAAAAAAGACAAAUCUGCCACAAACCUUGAGAGCAUCUUCGGGUGCAGAGGCGGCAGCCUUCGGUGGCGCGAUAGCGCCAACGUUCUCAACUAUGACACGCAAAACGCGUGCUCCGUUGAAUGGAGUUUAUCAUG
Second: GGAUCUUCUCGAUCUAACAAAAAAGACAAAUCUGCCACAAACCUUGAGAGCAUGUUCGGAUGCAGAGGCGGCAGCCUUCGGUGGCGCGAUUGCGCCAACGUUCUCAACUAUGACACGCAAAACACGUGCUGCGUUGAAUGGAGUUUAUCAUG
The “polymerase ribozyme fitness (log ratio)” value of the first is higher: -4.05 for the first, ≤ -4.2 for the second.

GGAUCUUCUCGAUCUAACAAAAAAGACAAAUCUGCCACAAAACUUGAGAGCAUCUUCGGAUGCAGAGGCGGCAGCCUUCGGUGGCGCGAUAACGCUAGCGUUCUCAACUAUGACACGCAAAACGCGUGCUCCGUUGAAUGGAGUUUAUCAGG and GGAUCUUCUCGAUCUAACAAAAAAGACAAAUCUGCCACAAAACGUGAGAGCAUCUACGGAUGCAGAGGCGGCAGCCUUCGCUGGAGCGAUAGCGCCAACGUUCUCAACUAUGACACUCAAAACGCGUGCUCCGUUGAAUGGAGUUUAUCAUG cannot be ordered by “polymerase ribozyme fitness (log ratio)” value: ≤ -4.2 for the first, ≤ -4.2 for the second.

Compared with GGAUCUUCUCGAUCUAACAAAAAAGACAAAUCUGCCACAAAACUUGAGAGCAUCAUCGGAUGCAGAGGCGGCAGCCUUCGGUGGCGCGAUAGCGCCAACGUUCUCAACUAUGACACGCAAAACGCGUGCUCCGUUGAAUGGAGUUUAUCAUG, GGAUCUUCUCGAUCUAACAAAAAAGACAAAUCUGCCACAAAACUUGAGAGCAUCUUCGGAUGCAGAGGCGGCAGCCUUCGGUGGCGCCAUAGCGCCAACGUUCUCAACUAUGACACGCAAAACGCGUGCUCCGUUGAAUGGAGUUUAUCAUG is lower in “polymerase ribozyme fitness (log ratio)” value: -3.81 for the first, ≤ -4.2 for the second.

GGAUCUUCUCGAUCUAACAAAAAAGACAAAUCUGCCACAAACGUUGAGAGCAUCUACGUAUGCAGAGGCGGCAGCCUUCGGUGGUGCGAUAGCGCCAACGUUCUCAACUAUGACACGCAAAACGAGCGCUCCGUUGAAUGGAGUUUAUCAUG and GGAUCUUCUCGAUCUAACAAAAAAGACAAAUCUGCCACAAAACUUGAGAGCAUCUUCGGAUGCAGAGGCGGCAGCCUUCGGUGGCACGAUAGCGCCAACGUUUUCAACUAUGACACGCCAAACGCGUGCUCCGUUGAAUGGAGUUUAUCAUG cannot be ordered by “polymerase ribozyme fitness (log ratio)” value: ≤ -4.2 for the first, ≤ -4.2 for the second.

GGAUCUUCUCGAUCUAACAAAAAAGACAAAUCUGCCACAAAACUUGAGAGCAUCUACGGUUGCAGAGGCGGCAGCAUUCGGUGGCGCGAUAGCGCAAACGUGCUCAACUAUGACACGCAAAACGCGAGCUCCGUUGAAUGUAGUUUAUCGUG and GGAUCUUCUCGAUCUAACAAAAAAGACAAAUCUGCCACAAACCUUGCGAGCAACUUCGGAUGCAGAGGCGGCAGCCUUCGGCGACGCGAUAGCGCCAACGUUCUCAACUAUGACACGCAAAGCGCGUGCUCCGUUGAUUGGACUUUAUCAUG cannot be ordered by “polymerase ribozyme fitness (log ratio)” value: ≤ -4.2 for the first, ≤ -4.2 for the second.

GGAUCUUCUCGAUCUAACAAAAAAGACAAAUCUGCCACAAACUUUGAGAGCAUCUUCGGAUGCAGAGGCGGCAGCCUUCGGUGGCGCGAUUGGGCCAACGUUCUCAACUAUGACACGCAAAACGCGUGCUCCGUUGAAUGGAGUUUAUCAUG and GGAUCUUCUCGAUCUAACAAAAAAGACAAAUCUGCCACAAAACUUGAGAGCAUCUUCGGAAGCAGAGGCGGCAGCCUUCGGUGCCGCGAUAGCGCCAACGUUCUCAACUAUGACACGCAAAACGCGUGCUCCUUUGAAUGGAGGUUAUCAUG cannot be ordered by “polymerase ribozyme fitness (log ratio)” value: ≤ -4.2 for the first, ≤ -4.2 for the second.

GGAUCUUCUCGAUCUAACAAAAAAGACAAAUCUGCCACAAACCUUGAGAGCAUCUUCGGAUGCAGAGGCGGCAGCCUUCGGUGGCGCGAUAGCGACAACGUUCUCAACUAUGACACGCAAAACGCGUGCUCCGUUGAAUGGAGUUUAUCAUG and GGAUCUUCUCGAUCUAACAAAAAAGACAAAUCUGCCACAAACCUUGAGAGCAUCUUCGGAUGCAGAGGCGGCAGCUUUCGGUGGUGCGGUAGCGCCAACGUUCCCAACUAUGACACGCAAAACGCGUGCUCCGUUGAAUGGAGUUUAUCAUG cannot be ordered by “polymerase ribozyme fitness (log ratio)” value: ≤ -4.2 for the first, ≤ -4.2 for the second.

In the case of GGAUCUUCUCGAUCUAACAAAAAAGACAAAUCUGCCACAAACCUUGAGAGCAUCUUCGGAUGCAGAGGCGGCAGCCUUCGGUGGCGCGAUAGCGACAACGUUCUCAACUAUGACACGCAAAACGCGUGCUCCGUUGAAUGGCGUUUAUCAUG, the “polymerase ribozyme fitness (log ratio)” value is reported as ≤ -4.2.
